Molecular target: HLA-A*02 (human)
Assay: UV-ligand exchange, anti-b2m ELISA; grade: exchange yield >=50%

B1: … (peptide)
peptide: SLTSEIHFL
Question: Which peptide exchange yield does the source give for B1 here?
Answer: 50 to 75%
